The target in assay [1] is recombinant C1q Lys^A200Asp-Lys^A201Asp mutant (human) (UniProt P02745). The experiment in a line: SPR; Biacore 3000, 25°C; C1q variants immobilised on CM5 chips by amine coupling; partners injected at 20 μl/min in 50 mM Tris-HCl, 150 mM NaCl, 2 mM CaCl2, 0.005% surfactant P20, pH 7.4; BSA reference surface; global fit to 1:1 Langmuir model; apparent KD = kd/ka.
For assay [2], the target named is recombinant C1q Lys^C170Glu mutant (human) (UniProt P02745). Described as above.
The target of assay [3] is recombinant C1q Tyr^B175Leu mutant (human) (UniProt P02745). The assay is described as above.
The target of assay [4] is recombinant wild-type C1q (human) (UniProt P02745). The assay is described as above.
Assay [5] has as its target recombinant human PTX3 (D at position 48) from CHO cells (human) (UniProt P26022).
For assay [6], the target named is recombinant human PTX3 A48 allelic variant from HEK293 (human) (UniProt P26022). The experiment in a line: non-reducing SDS-PAGE; purified PTX3 on Tris acetate 3-8% gels without dithiothreitol, silver stain; disulfide-linked oligomers.
Assay [7] deals with recombinant human PTX3 D48 allelic variant from HEK293 (human) (UniProt P26022). The description is as above.

Chain of recombinant C1q Lys^A200Asp-Lys^A201Asp mutant (human) (P02745 other isoform, or with tags, fused parts or gaps mutant, chain 1 of 3): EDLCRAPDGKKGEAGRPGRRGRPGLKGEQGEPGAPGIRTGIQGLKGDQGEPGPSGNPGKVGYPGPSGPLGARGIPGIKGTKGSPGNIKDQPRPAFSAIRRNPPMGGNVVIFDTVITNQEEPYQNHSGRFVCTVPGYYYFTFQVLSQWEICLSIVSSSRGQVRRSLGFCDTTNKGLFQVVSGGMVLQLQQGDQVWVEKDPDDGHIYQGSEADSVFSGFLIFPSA
Chain of recombinant C1q Lys^A200Asp-Lys^A201Asp mutant (human) (P02746 28-253, stated change not applied, chain 2 of 3, further chain): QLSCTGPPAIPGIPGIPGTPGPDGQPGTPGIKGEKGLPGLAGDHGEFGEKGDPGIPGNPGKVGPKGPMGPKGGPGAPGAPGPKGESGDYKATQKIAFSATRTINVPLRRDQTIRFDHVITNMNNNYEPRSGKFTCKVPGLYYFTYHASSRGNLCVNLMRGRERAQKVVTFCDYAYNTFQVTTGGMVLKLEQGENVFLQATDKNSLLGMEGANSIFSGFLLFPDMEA
Chain of recombinant C1q Lys^A200Asp-Lys^A201Asp mutant (human) (P02747 29-245, stated change not applied, chain 3 of 3, further chain): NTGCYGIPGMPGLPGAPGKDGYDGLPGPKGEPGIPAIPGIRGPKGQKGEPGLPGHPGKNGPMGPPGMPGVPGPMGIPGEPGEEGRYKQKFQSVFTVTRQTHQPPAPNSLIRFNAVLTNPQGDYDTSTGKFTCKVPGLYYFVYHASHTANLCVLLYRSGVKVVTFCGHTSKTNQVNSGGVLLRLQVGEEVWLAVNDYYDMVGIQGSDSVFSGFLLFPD
Chain of recombinant C1q Lys^C170Glu mutant (human) (P02745 23-245, change not shown, chain 1 of 3): as the sequence (P02745 other isoform, or with tags, fused parts or gaps mutant, chain 1 of 3) above, with D200K, D201K counted along it
Chain of recombinant C1q Lys^C170Glu mutant (human) (P02746 28-253, change not shown, chain 2 of 3, further chain): as the sequence (P02746 28-253, stated change not applied, chain 2 of 3, further chain) above
Chain of recombinant C1q Lys^C170Glu mutant (human) (P02747 other isoform, or with tags, fused parts or gaps mutant, chain 3 of 3, further chain): as the sequence (P02747 29-245, stated change not applied, chain 3 of 3, further chain) above, with K170E counted along it
Chain of recombinant wild-type C1q (human) (P02745 23-245, chain 1 of 3): as the sequence (P02745 other isoform, or with tags, fused parts or gaps mutant, chain 1 of 3) above, with D200K, D201K counted along it
Chain of recombinant wild-type C1q (human) (P02746 28-253, chain 2 of 3, further chain): as the sequence (P02746 28-253, stated change not applied, chain 2 of 3, further chain) above
Chain of recombinant wild-type C1q (human) (P02747 29-245, chain 3 of 3, further chain): as the sequence (P02747 29-245, stated change not applied, chain 3 of 3, further chain) above
Chain of recombinant C1q Tyr^B175Leu mutant (human) (P02745 23-245, change not shown, chain 1 of 3): as the sequence (P02745 other isoform, or with tags, fused parts or gaps mutant, chain 1 of 3) above, with D200K, D201K counted along it
Chain of recombinant C1q Tyr^B175Leu mutant (human) (P02746 other isoform, or with tags, fused parts or gaps mutant, chain 2 of 3, further chain): as the sequence (P02746 28-253, stated change not applied, chain 2 of 3, further chain) above, with Y175L counted along it
Chain of recombinant C1q Tyr^B175Leu mutant (human) (P02747 29-245, change not shown, chain 3 of 3, further chain): as the sequence (P02747 29-245, stated change not applied, chain 3 of 3, further chain) above

As to human IgM (antibody), the Kd in assay [1] was 3.31 nM; in assay [2], 2.48 nM; in assay [3], 0.892 nM; in assay [4] it was 1.92 nM. In addition, the koff in assay [1] stood at 0.00206 s⁻¹; in assay [2] it was 0.00167 s⁻¹; in assay [3], 0.00131 s⁻¹; in assay [4] it was 0.00154 s⁻¹. Further, the kon in assay [1] was 717000 M⁻¹ s⁻¹; in assay [2], 681000 M⁻¹ s⁻¹; in assay [3], 1.47e+06 M⁻¹ s⁻¹; in assay [4] it was 919000 M⁻¹ s⁻¹.
In the assay with human IgM (human), “recombinant C1q Arg^B108Asp-Arg^B109Glu mutant (from UniProt P02745 23-245; P02746 28-253; P02747 29-245) (complex)” gave an IgM-dependent complement activation: C4b deposition in IgM-coated wells, C1q-depleted serum reconstituted with the C1q variant (4 μg/ml) (% of the signal obtained with C1qWT) of 9. The PTX3-dependent complement activation: C4b deposition in PTX3-coated wells, C1q-depleted serum reconstituted with the C1q variant (4 μg/ml) (% of the signal obtained with C1qWT) in assay [5] was found to be 30.
As to “recombinant C1q Lys^A200Asp-Lys^A201Asp mutant (from UniProt P02745 23-245; P02746 28-253; P02747 29-245) (complex)”, the PTX3-dependent complement activation: C4b deposition in PTX3-coated wells, C1q-depleted serum reconstituted with the C1q variant (4 μg/ml) in assay [5] was 163 % of C1qWT.
For “recombinant C1q Tyr^B175Leu mutant (from UniProt P02745 23-245; P02746 28-253; P02747 29-245) (complex)”, the IgM-dependent complement activation: C4b deposition in IgM-coated wells, C1q-depleted serum reconstituted with the C1q variant (4 μg/ml) (% of the C1qWT value) with human IgM (human) came out at 61.4. Further, the PTX3-dependent complement activation: C4b deposition in PTX3-coated wells, C1q-depleted serum reconstituted with the C1q variant (4 μg/ml) (% of the C1qWT value) in assay [5] amounted to 44.5.
Turning to “recombinant C1s-C1r-C1r-C1s tetramer (complex)”, in assay [2], the Kd amounted to 5.29 nM, the koff came to 0.00256 s⁻¹ and the kon amounted to 486000 M⁻¹ s⁻¹. In assay [3], the Kd stood at 6.75 nM, the koff is 0.00297 s⁻¹ and the kon came out at 440000 M⁻¹ s⁻¹. For the same substance, in assay [4], the Kd stood at 6.36 nM, the koff was 0.00288 s⁻¹ and the kon stood at 435000 M⁻¹ s⁻¹.
In the case of “recombinant human PTX3 (D at position 48) from CHO cells (from UniProt P26022 18-381) (natural protein)”, the Kd in assay [1] is 7.84 nM; in assay [2], 10.9 nM; in assay [4] it was 5.65 nM. The koff in assay [1] turned out to be 0.000634 s⁻¹; in assay [2] it was 0.00152 s⁻¹; in assay [4], 0.000859 s⁻¹. The figures for the kon in assay [1], in assay [2] and in assay [4] were 98300 M⁻¹ s⁻¹, 140000 M⁻¹ s⁻¹ and 155000 M⁻¹ s⁻¹, respectively.
In the case of “recombinant human PTX3 A48 allelic variant from HEK293 (from UniProt P26022 18-381) (natural protein)”, in assay [6], the stoichiometry N was 8.
As to “recombinant human PTX3 D48 allelic variant from HEK293 (from UniProt P26022 18-381) (natural protein)”, the stoichiometry N in assay [7] came out at 8.

What is called koff is a measure of how fast the partners let go of each other. The kon is the second-order rate constant of association. For orientation: stoichiometry N means the number of molecules, sites or subunits per partner or assembly.

(Values after PMC6426777.)
